Target: F-actin polymerized from rabbit skeletal muscle G-actin, stabilized with phalloidin (rabbit), P68135
Test: co-sedimentation
Conditions: remark: other sources report otherwise

- Kd: 2.9 µM
B1: αE-catenin homodimer, P26231 1-906 (natural protein)
chain: MTAVHAGNINFKWDPKSLEIRTLAVERLLEPLVTQVTTLVNTNSKGPSNKKRGRSKKAHVLAASVEQATENFLEKGDKIAKESQFLKEELVVAVEDVRKQGDLMKSAAGEFADDPCSSVKRGNMVRAARALLSAVTRLLILADMADVYKLLVQLKVVEDGILKLRNAGNEQDLGIQYKALKPEVDKLNIMAAKRQQELKDVGNRDQMAAARGILQKNVPILYTASQACLQHPDVAAYKANRDLIYKQLQQAVTGISNAAQATASDDAAQHQGGSGGELAYALNNFDKQIIVDPLSFSEERFRPSLEERLESIISGAALMADSSCTRDDRRERIVAECNAVRQALQDLLSEYMGNAGRKERSDALNSAIDKMTKKTRDLRRQLRKAVMDHVSDSFLETNVPLLVLIEAAKNGNEKEVKEYAQVFREHANKLIEVANLACSISNNEEGVKLVRMSASQLEALCPQVINAALALAAKPQSKLAQENMDLFKEQWEKQVRVLTDAVDDITSIDDFLAVSENHILEDVNKCVIALQEKDVDGLDRTAGAIRGRAARVIHVVTSEMDNYEPGVYTEKVLEATKLLSNTVMPRFTEQVEAAVEALSSDPAQPMDENEFIDASRLVYDGIRDIRKAVLMIRTPEELDDSDFETEDFDVRSRTSVQTEDDQLIAGQSARAIMAQLPQEQKAKIAEQVASFQEEKSKLDAEVSKWDDSGNDIIVLAKQMCMIMMEMTDFTRGKGPLKNTSDVISAAKKIAEAGSRMDKLGRTIADHCPDSACKQDLLAYLQRIALYCHQLNICSKVKAEVQNLGGELVVSGVDSAMSLIQAAKNLMNAVVQTVKASYVASTKYQKSQGMASLNLPAVSWKMKAPEKKPLVKREKQDETQTKIKRASQKKHVNPVQALSEFKAMDSI
